Reference: the RNAGym collection of RNA variant scans (doi:10.7554/elife.80360)

B1: Twister Ribozyme (parent)
chain: AACACUGCCAAUGCCGGUCCCAAGCCCGGAUAAAAGUGGAGGGGGCGG

Variants of: B1
Experiment: self-cleavage, relative activity (ratio to wild type); higher = more cleavage; co-transcriptional

Question: With AACACUGCCAAUGCCGGUCCCAAGCCCGGAUAAAAGUGGAGCGGGCAG [G42C G47A] as the variant, how does the self-cleavage read?
Answer: 0.43

Question: Which self-cleavage does the source give for AACACUGCCAAUGCCGGUCCCAAGCCCGGAUAAAAGUGGAGCGGGCCG [G42C G47C] here?
Answer: 0.467

Question: Which self-cleavage does the source give for AACACUGCCAAUGCCGGUCCCAAGCCCGGAUAAAAGUGGAGCGGGCUG [G42C G47U] here?
Answer: 0.491

Question: With AACACUGCCAAUGCCGGUCCCAAGCCCGGAUAAAAGUGGAGGAGGCUG [G43A G47U] as the variant, how does the self-cleavage read?
Answer: 0.175

Question: For AACACUGCCAAUGCCGGUCCCAAGCCCGGAUAAAAGUGGAGCGGGCGU [G42C G48U], which self-cleavage is on record?
Answer: 0.561

Question: Which self-cleavage does the source give for AACACUGCCAAUGCCGGUCCCAAGCCCGGAUAAAAGUGGAGUGGUCGG [G42U G45U] here?
Answer: 0.191

Question: Which self-cleavage does the source give for AACACUGCCAAUGCCGGUCCCAAGCCCGGAUAAAAGUGGAGUGGACGG [G42U G45A] here?
Answer: 0.294

Question: For AACACUGCCAAUGCCGGUCCCAAGCCCGGAUAAAAGUGGAGUGGCCGG [G42U G45C], which self-cleavage is on record?
Answer: 0.203

Question: Which self-cleavage does the source give for AACACUGCCAAUGCCGGUCCCAAGCCCGGAUAAAAGUGGAGGUGGCGA [G43U G48A] here?
Answer: 0.175

Question: With AACACUGCCAAUGCCGGUCCCAAGCCCGGAUAAAAGUGGAGGUGGCGU [G43U G48U] as the variant, how does the self-cleavage read?
Answer: 0.198

Question: For AACACUGCCAAUGCCGGUCCCAAGCCCGGAUAAAAGUGGAGGUGGCGC [G43U G48C], which self-cleavage is on record?
Answer: 0.205

Question: Which self-cleavage does the source give for AACACUGCCAAUGCCGGUCCCAAGCCCGGAUAAAAGUGGAGUGGGCGU [G42U G48U] here?
Answer: 0.451

Question: For AACACUGCCAAUGCCGGUCCCAAGCCCGGAUAAAAGUGGAGUGGGCGA [G42U G48A], which self-cleavage is on record?
Answer: 0.25

Question: For AACACUGCCAAUGCCGGUCCCAAGCCCGGAUAAAAGUGGAGGUGGAGG [G43U C46A], which self-cleavage is on record?
Answer: 0.271

Question: With AACACUGCCAAUGCCGGUCCCAAGCCCGGAUAAAAGUGGAGGUGGUGG [G43U C46U] as the variant, how does the self-cleavage read?
Answer: 0.426

Question: With AACACUGCCAAUGCCGGUCCCAAGCCCGGAUAAAAGUGGAGGUGGGGG [G43U C46G] as the variant, how does the self-cleavage read?
Answer: 0.409

Question: For AACACUGCCAAUGCCGGUCCCAAGCCCGGAUAAAAGUGGAGGCGGGGG [G43C C46G], which self-cleavage is on record?
Answer: 0.174

Question: Which self-cleavage does the source give for AACACUGCCAAUGCCGGUCCCAAGCCCGGAUAAAAGUGGAGGCGGAGG [G43C C46A] here?
Answer: 0.111

Question: Which self-cleavage does the source give for AACACUGCCAAUGCCGGUCCCAAGCCCGGAUAAAAGUGGAGGAGACGG [G43A G45A] here?
Answer: 0.318

Question: For AACACUGCCAAUGCCGGUCCCAAGCCCGGAUAAAAGUGGAGGAGUCGG [G43A G45U], which self-cleavage is on record?
Answer: 0.305

Question: With AACACUGCCAAUGCCGGUCCCAAGCCCGGAUAAAAGUGGAGUCGGCGG [G42U G43C] as the variant, how does the self-cleavage read?
Answer: 0.114

Question: For AACACUGCCAAUGCCGGUCCCAAGCCCGGAUAAAAGUGGAGUUGGCGG [G42U G43U], which self-cleavage is on record?
Answer: 0.127

Question: Which self-cleavage does the source give for AACACUGCCAAUGCCGGUCCCAAGCCCGGAUAAAAGUGGAGUGGGGGG [G42U C46G] here?
Answer: 0.309

Question: For AACACUGCCAAUGCCGGUCCCAAGCCCGGAUAAAAGUGGAGUGGGUGG [G42U C46U], which self-cleavage is on record?
Answer: 0.383

Question: With AACACUGCCAAUGCCGGUCCCAAGCCCGGAUAAAAGUGGAGGAGGCGU [G43A G48U] as the variant, how does the self-cleavage read?
Answer: 0.291

Question: For AACACUGCCAAUGCCGGUCCCAAGCCCGGAUAAAAGUGGAGGAGGCGC [G43A G48C], which self-cleavage is on record?
Answer: 0.354

Question: With AACACUGCCAAUGCCGGUCCCAAGCCCGGAUAAAAGUGGAGGAGGCGA [G43A G48A] as the variant, how does the self-cleavage read?
Answer: 0.244

Question: Which self-cleavage does the source give for AACACUGCCAAUGCCGGUCCCAAGCCCGGAUAAAAGUGGAGGCGCCGG [G43C G45C] here?
Answer: 0.267

Question: Which self-cleavage does the source give for AACACUGCCAAUGCCGGUCCCAAGCCCGGAUAAAAGUGGAGGCGUCGG [G43C G45U] here?
Answer: 0.275

Question: For AACACUGCCAAUGCCGGUCCCAAGCCCGGAUAAAAGUGGAGCGGCCGG [G42C G45C], which self-cleavage is on record?
Answer: 0.131

Question: With AACACUGCCAAUGCCGGUCCCAAGCCCGGAUAAAAGUGGAGGCCGCGG [G43C G44C] as the variant, how does the self-cleavage read?
Answer: 0.686

Question: For AACACUGCCAAUGCCGGUCCCAAGCCCGGAUAAAAGUGGAGGCAGCGG [G43C G44A], which self-cleavage is on record?
Answer: 0.469

Question: Which self-cleavage does the source give for AACACUGCCAAUGCCGGUCCCAAGCCCGGAUAAAAGUGGAGUGGGCGG [G42U] here?
Answer: 0.445

Question: Which self-cleavage does the source give for AACACUGCCAAUGCCGGUCCCAAGCCCGGAUAAAAGUGGAGGUGGCCG [G43U G47C] here?
Answer: 0.177

Question: Which self-cleavage does the source give for AACACUGCCAAUGCCGGUCCCAAGCCCGGAUAAAAGUGGAGGUGGCUG [G43U G47U] here?
Answer: 0.137

Question: With AACACUGCCAAUGCCGGUCCCAAGCCCGGAUAAAAGUGGAGGUGGCAG [G43U G47A] as the variant, how does the self-cleavage read?
Answer: 0.201

Question: With AACACUGCCAAUGCCGGUCCCAAGCCCGGAUAAAAGUGGAGGUGACGG [G43U G45A] as the variant, how does the self-cleavage read?
Answer: 0.614

Question: Which self-cleavage does the source give for AACACUGCCAAUGCCGGUCCCAAGCCCGGAUAAAAGUGGAGGUGUCGG [G43U G45U] here?
Answer: 0.358

Question: For AACACUGCCAAUGCCGGUCCCAAGCCCGGAUAAAAGUGGAGGUCGCGG [G43U G44C], which self-cleavage is on record?
Answer: 0.767

Question: With AACACUGCCAAUGCCGGUCCCAAGCCCGGAUAAAAGUGGAGGUUGCGG [G43U G44U] as the variant, how does the self-cleavage read?
Answer: 0.398

Question: For AACACUGCCAAUGCCGGUCCCAAGCCCGGAUAAAAGUGGAGGUAGCGG [G43U G44A], which self-cleavage is on record?
Answer: 0.722

Question: With AACACUGCCAAUGCCGGUCCCAAGCCCGGAUAAAAGUGGAGUGGGCCG [G42U G47C] as the variant, how does the self-cleavage read?
Answer: 0.224

Question: With AACACUGCCAAUGCCGGUCCCAAGCCCGGAUAAAAGUGGAGUGGGCUG [G42U G47U] as the variant, how does the self-cleavage read?
Answer: 0.296

Question: For AACACUGCCAAUGCCGGUCCCAAGCCCGGAUAAAAGUGGAGGCGGCGU [G43C G48U], which self-cleavage is on record?
Answer: 0.138

Question: For AACACUGCCAAUGCCGGUCCCAAGCCCGGAUAAAAGUGGAGUGCGCGG [G42U G44C], which self-cleavage is on record?
Answer: 0.202

Question: Which self-cleavage does the source give for AACACUGCCAAUGCCGGUCCCAAGCCCGGAUAAAAGUGGAGUGUGCGG [G42U G44U] here?
Answer: 0.196

Question: For AACACUGCCAAUGCCGGUCCCAAGCCCGGAUAAAAGUGGAGGCGGCGG [G43C], which self-cleavage is on record?
Answer: 0.227

Question: For AACACUGCCAAUGCCGGUCCCAAGCCCGGAUAAAAGUGGAGGAGGCGG [G43A], which self-cleavage is on record?
Answer: 0.328

Question: Which self-cleavage does the source give for AACACUGCCAAUGCCGGUCCCAAGCCCGGAUAAAAGUGGAGGUGGCGG [G43U] here?
Answer: 0.537

Question: For AACACUGCCAAUGCCGGUCCCAAGCCCGGAUAAAAGUGGAGGAGGGGG [G43A C46G], which self-cleavage is on record?
Answer: 0.367

Question: Which self-cleavage does the source give for AACACUGCCAAUGCCGGUCCCAAGCCCGGAUAAAAGUGGAGGAGGUGG [G43A C46U] here?
Answer: 0.315

Question: With AACACUGCCAAUGCCGGUCCCAAGCCCGGAUAAAAGUGGAGGACGCGG [G43A G44C] as the variant, how does the self-cleavage read?
Answer: 0.465

Question: Which self-cleavage does the source give for AACACUGCCAAUGCCGGUCCCAAGCCCGGAUAAAAGUGGAGGAAGCGG [G43A G44A] here?
Answer: 0.267

Question: With AACACUGCCAAUGCCGGUCCCAAGCCCGGAUAAAAGUGGAGGAUGCGG [G43A G44U] as the variant, how does the self-cleavage read?
Answer: 0.271
